Measured values as given in patent publication US20260083845A1 (CELLICURE, published 2026).

T1: NKG2D-GFP (human, UniProt P26718 1-216)
T1 construct: whole, on cells; NKG2D-GFP expressed in NK cells for the PLA between GFP and DAP10; also called natural NKG2D; not shown: GFP
T1 sequence (looked up): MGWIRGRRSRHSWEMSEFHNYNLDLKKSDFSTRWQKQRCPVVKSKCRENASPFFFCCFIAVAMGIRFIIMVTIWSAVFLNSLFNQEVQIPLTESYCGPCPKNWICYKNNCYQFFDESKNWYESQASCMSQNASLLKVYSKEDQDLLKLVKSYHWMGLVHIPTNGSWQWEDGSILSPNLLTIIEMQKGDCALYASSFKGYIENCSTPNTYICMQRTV

T2: NKG2D (natural receptor on NK cells) (human, UniProt P26718 1-216)
T2 construct: whole, on cells; also called NKG2D receptors; natural NKG2D
T2 sequence (looked up): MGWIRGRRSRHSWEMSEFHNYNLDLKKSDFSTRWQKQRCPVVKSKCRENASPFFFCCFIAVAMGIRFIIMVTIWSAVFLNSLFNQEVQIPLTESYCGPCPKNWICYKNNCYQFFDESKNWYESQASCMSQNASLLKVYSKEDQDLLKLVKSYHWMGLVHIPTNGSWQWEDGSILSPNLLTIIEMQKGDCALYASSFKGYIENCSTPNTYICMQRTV

B1: DNAX-Activation Protein 10 (DAP10) (other, human, UniProt Q9UBK5 19-93, looked up)
chain: QTTPGERSSLPAFYPGTSGSCSGCGSLSLPLLAGLVAADAVASLLIVGAVFLCARPRRSPAQEDGKVYINMPGRG
notes: whole, on cells; Endogenous DAP10 of the NK cells, detected with anti-DAP10 (mouse IgG) in the PLA

Columns and labels:
[1] = biological target: T1, NKG2D-GFP; assay: Duolink proximity ligation assay (anti-GFP + anti-DAP10) in NKG2D-GFP expressing NK cells with CAR0 or CAR2, stimulated by 293T-CD19-MICA, confocal microscopy
Protocol: (§1) PLA assays were performed using the in situ Duolink PLA red kit (Sigma-Aldrich) according to the manufacturer's instructions. The CAR0, an empty vector with GFP expression, or CAR2-GFP fusion expressing NK cells were attached to the poly-l-lysine glass, target cells were then added and incubated at 37° C. for 30 minutes. Unattached cells were removed by washing with PBS. slides were fixed and stained with anti-GFP (Rabbit IgG) and anti-DAP10 (Mouse IgG), washed, and stained with anti-rabbit and anti-mouse PLA probes, followed by probe DNA ligation, amplification, Fluorescent staining were then performed and observed using confocal microscopy,
(§2) NKG2D receptor has no intracellular signaling domain, it recruits adaptor DNAX-Activation Protein 10 (DAP10) to transfer signals via YxxM motif (Eagle et al. (2009) Beyond Stressed Self: Evidence for NKG2D Ligand Expression on Healthy Cells. Curr Immunol Rev. 5(1):22-34). […] DAP10 was recruited to the CAR2 effectively stimulating by CD19.

[2] = biological target: T2, NKG2D (natural receptor on NK cells); assay: Duolink proximity ligation assay NKG2D+DAP10, counted PLA signals, CAR-NK cells stimulated by 293T-MICA
[3] = biological target: B1; assay: Duolink proximity ligation assay (anti-GFP + anti-DAP10) in NK cells stimulated by 293T-CD19-MICA, confocal microscopy
Protocol: as §1, §2

Binder | binding result [1] | binding result [2] | binding result [3]
B1 | binds | binds | 
CAR2-GFP fusion (NKG2D CAR: anti-CD19 ScFv-CD8 hinge-NKG2D TM-2B4 ICD-CD3zeta, fused to GFP) (receptor, Expressed in NK cells for the Duolink PLA; not shown: GFP) EVKLQQSGAELVRPGSSVKISCKASGYAFSSYWMNWVKQRPGQGLEWIGQIYPGDGDTNYNGKFKGQATLTADKSSSTAYMQLSGLTSEDSAVYFCARKTISSVVDFYFDYWGQGTTVTVSSGGGGSGGGGSGGGGSDIELTQSPKFMSTSVGDRVSVTCKASQNVGTNVAWYQQKPGQSPKPLIYSATYRNSGVPDRFTGSGSGTDFTLTITNVQSKDLADYFCQQYNRYPYTSGGGTKLEIKPAKPTTTPAPRPPTPAPTIASQPLSLRPEACRPAAGGAVHTRGLDFACDPFFFCCFIAVAMGIRFIIMVTWRRKRKEKQSETSPKEFLTIYEDVKDLKTRRNHEQEQTFPGGGSTIYSMIQSQSSAPTSQEPAYTLYSLIQPSRKSGSRKRNHSPSFNSTIYEVIGKSQPKAQNPARLSRKELENFDVYSSFGLLDPKLCYLLDGILFIYGVILTALFLRVKFSRSADAPAYQQGQNQLYNELNLGRREEYDVLDKRRGRDPEMGGKPRRKNPQEGLYNELQKDKMAEAYSEIGMKGERRRGKGHDGLYQGLSTATKDTYDALHMQALPPR |  |  | binds
